Measurements from patent US20170022287A1 (Chugai, published 2017).

Tests used:
[1] = target: full-length human CD137-Fc fusion protein (human); experiment: ELISA, coated CD137-Fc protein 2 µg/mL, antibody 10 or 5 µg/mL; absorbance 620 nm divided by that of the uncoated well
Experimental: (§1) Fragmented human CD137-Fc fusion proteins were diluted to 2 μg/mL in an aqueous sodium carbonate solution adjusted to pH9.6. Fifty μL of a diluted fragmented human CD137-Fc fusion protein was added individually to each well of a Nunc MaxiSorp flat-bottom 96 well plate (Nunc). This was allowed to stand at 4° C. overnight or longer, and then the plate was allowed to stand at room temperature for one hour so that the plate has the same temperature as the room temperature. The solution containing the fragmented human CD137-Fc fusion protein was removed by tilting, and each well was washed three times with 300 μL of Wash buffer (TBS containing 0.1% Tween20, TaKaRa). Next, 150 μL of blocking buffer (TBS containing 2% BSA) was added to each well, and this was allowed to stand for one hour or more. The blocking buffer was removed by tilting, and each well was washed three times with Wash Buffer in a similar manner to an earlier step. Then, 50 μL of an antibody solution prepared in advance by dilution with TBS to 10 μg/mL or 5 μg/mL was added to each well. This was subjected to a speed of 600 rpm or so for one hour at room temperature to bind the antibody to the immobilized antigen. […] 100 μL of a secondary antibody solution produced by 1000-fold dilution with TBS containing 0.1% Tween20 was added to each well. For the secondary antibody, ANTIBODY ALKALINE PHOSPHATASE CONJUGATE HUMAN IMMUNOGLOBULIN ABSORBED Goat Anti-Human Kappa Alkaline Phosphate from BIOSOURCE was used in the case of antibodies carrying a Kappa chain, and Human Lambda Light Chain Antibody; Goat anti-Human Lambda Light Chain Antibody Alkaline Phosphatase Conjugated from BETHYL LABORATORIES INC. was used in the case of antibodies carrying a Lambda chain. […] Color development was performed using the BluePhos Microwell kit from KPL. After the chromogenic reaction was stopped using the AP stop solution from KPL, the absorbance was measured at 620 nm on an absorptiometer.

CRD1-2 [2] = target: T1, CRD1-2; experiment: as above
T1 construct: also called fragmented human CD137-Fc fusion protein CRD1-2
Experimental: as §1

CRD1 [3] = target: T2, CRD1; experiment: as above
T2 construct: also called fragmented human CD137-Fc fusion protein CRD1
Experimental: as §1

CRD2-3 [4] = target: T3, CRD2-3; experiment: as above
T3 construct: also called fragmented human CD137-Fc fusion protein CRD2-3
Experimental: as §1

CRD2-4 [5] = target: T4, CRD2-4; experiment: as above
T4 construct: also called fragmented human CD137-Fc fusion protein CRD2-4
Experimental: as §1

CRD1-3 [6] = target: T5, CRD1-3; experiment: as above
T5 construct: also called fragmented human CD137-Fc fusion protein CRD1-3
Experimental: as §1

CRD3-4 [7] = target: T6, CRD3-4; experiment: as above
T6 construct: also called fragmented human CD137-Fc fusion protein CRD3-4
Experimental: as §1

CRD2-3 [8] = target: T3, CRD2-3; experiment: ELISA, coated CD137-Fc protein 2 µg/mL, antibody 10 or 5 µg/mL, absorbance 620 nm; Non (uncoated well) 0.1705
Experimental: as §1

[9] = target: full-length human CD137-Fc fusion protein (human); experiment: as above
Experimental: as §1

CRD1-2 [10] = target: T1, CRD1-2; experiment: as above
Experimental: as §1

CRD1 [11] = target: T2, CRD1; experiment: as above
Experimental: as §1

CRD2-4 [12] = target: T4, CRD2-4; experiment: as above
Experimental: as §1

CRD1-3 [13] = target: T5, CRD1-3; experiment: as above
Experimental: as §1

CRD3-4 [14] = target: T6, CRD3-4; experiment: as above
Experimental: as §1

[15] = target: T7, mouse Fcγ receptor III extracellular domain with C-terminal His tag (mouse, UniProt P08508 31-215); experiment: SPR (Biacore) kinetics, antibody captured on Protein L, mFcγR as analyte, 1:1 Langmuir model
T7 construct: extracellular domain; also called mFcγRIII; not shown: His tag at the C terminus
T7 sequence (looked up): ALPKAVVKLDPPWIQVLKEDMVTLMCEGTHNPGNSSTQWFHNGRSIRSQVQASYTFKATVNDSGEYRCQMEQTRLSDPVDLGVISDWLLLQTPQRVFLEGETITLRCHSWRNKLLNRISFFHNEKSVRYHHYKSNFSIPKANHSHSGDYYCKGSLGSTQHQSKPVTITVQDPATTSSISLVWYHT

mouse CD137 on T cells = mouse CD137 on T cells (mouse, UniProt P20334 24-256); experiment: cell-based or functional assay
Sequence of mouse CD137 on T cells (P20334 24-256): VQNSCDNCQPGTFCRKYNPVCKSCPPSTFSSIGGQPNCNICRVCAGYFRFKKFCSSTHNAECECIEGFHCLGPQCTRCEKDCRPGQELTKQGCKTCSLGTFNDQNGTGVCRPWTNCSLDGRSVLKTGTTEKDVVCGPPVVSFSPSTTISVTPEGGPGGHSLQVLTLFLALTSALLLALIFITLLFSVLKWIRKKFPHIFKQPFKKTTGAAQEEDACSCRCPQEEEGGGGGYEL

T2 sequence (chain, as listed by the source limits assumed): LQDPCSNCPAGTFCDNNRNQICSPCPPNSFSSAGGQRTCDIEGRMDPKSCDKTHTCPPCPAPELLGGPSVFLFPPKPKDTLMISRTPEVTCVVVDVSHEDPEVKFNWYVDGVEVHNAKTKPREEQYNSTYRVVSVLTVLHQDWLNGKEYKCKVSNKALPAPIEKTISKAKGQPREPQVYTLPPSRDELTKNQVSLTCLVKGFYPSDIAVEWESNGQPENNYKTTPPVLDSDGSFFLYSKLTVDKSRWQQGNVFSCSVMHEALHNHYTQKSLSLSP
Sequence of full-length human CD137-Fc fusion protein (human) (chain, as listed by the source limits assumed): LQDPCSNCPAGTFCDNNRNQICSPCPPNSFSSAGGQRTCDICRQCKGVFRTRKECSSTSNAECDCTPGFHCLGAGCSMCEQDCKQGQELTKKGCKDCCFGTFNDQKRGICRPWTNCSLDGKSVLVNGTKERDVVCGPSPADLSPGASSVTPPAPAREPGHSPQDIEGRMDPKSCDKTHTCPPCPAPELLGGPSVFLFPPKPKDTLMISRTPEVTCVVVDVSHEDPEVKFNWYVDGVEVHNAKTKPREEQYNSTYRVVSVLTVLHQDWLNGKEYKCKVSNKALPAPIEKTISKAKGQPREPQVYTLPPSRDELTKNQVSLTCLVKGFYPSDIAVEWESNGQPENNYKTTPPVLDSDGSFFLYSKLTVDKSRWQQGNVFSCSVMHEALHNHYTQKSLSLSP
T1 sequence (chain, as listed by the source limits assumed): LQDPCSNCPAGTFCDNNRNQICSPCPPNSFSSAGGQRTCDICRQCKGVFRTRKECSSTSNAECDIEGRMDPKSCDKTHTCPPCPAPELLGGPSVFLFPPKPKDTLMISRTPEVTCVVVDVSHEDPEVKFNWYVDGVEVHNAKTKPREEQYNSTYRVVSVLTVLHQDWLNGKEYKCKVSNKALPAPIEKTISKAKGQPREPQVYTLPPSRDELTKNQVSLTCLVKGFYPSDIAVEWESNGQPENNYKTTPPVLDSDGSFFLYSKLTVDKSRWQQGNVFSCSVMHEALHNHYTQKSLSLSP
T4 sequence (chain, as listed by the source limits assumed): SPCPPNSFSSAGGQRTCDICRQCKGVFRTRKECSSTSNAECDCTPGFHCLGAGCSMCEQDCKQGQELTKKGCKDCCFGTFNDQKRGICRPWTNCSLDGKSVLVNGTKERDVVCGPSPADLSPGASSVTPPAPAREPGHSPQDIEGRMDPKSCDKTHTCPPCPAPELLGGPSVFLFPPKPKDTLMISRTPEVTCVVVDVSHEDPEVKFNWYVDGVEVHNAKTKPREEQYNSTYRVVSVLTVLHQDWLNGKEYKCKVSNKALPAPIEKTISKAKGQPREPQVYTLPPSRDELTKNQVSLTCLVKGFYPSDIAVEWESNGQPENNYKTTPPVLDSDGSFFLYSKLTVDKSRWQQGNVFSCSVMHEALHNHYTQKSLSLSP
T3 sequence (chain, as listed by the source limits assumed): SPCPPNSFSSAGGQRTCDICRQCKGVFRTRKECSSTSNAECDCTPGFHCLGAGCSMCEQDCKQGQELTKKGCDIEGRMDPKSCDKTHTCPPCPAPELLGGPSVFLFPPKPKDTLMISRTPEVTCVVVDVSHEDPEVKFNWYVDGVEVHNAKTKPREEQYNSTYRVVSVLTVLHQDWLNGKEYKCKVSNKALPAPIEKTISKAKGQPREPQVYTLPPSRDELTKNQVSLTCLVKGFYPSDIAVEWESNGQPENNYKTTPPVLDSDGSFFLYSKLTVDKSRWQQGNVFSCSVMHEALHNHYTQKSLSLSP
T5 sequence (chain, as listed by the source limits assumed): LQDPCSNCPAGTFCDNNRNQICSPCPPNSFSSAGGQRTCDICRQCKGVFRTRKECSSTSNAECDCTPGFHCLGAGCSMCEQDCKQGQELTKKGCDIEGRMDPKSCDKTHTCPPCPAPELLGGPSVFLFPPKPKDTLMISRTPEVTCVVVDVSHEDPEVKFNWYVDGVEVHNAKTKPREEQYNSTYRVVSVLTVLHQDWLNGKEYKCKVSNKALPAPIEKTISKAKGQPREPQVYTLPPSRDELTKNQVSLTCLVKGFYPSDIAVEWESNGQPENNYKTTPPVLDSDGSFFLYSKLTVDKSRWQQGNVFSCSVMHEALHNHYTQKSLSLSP
T6 sequence (chain, as listed by the source limits assumed): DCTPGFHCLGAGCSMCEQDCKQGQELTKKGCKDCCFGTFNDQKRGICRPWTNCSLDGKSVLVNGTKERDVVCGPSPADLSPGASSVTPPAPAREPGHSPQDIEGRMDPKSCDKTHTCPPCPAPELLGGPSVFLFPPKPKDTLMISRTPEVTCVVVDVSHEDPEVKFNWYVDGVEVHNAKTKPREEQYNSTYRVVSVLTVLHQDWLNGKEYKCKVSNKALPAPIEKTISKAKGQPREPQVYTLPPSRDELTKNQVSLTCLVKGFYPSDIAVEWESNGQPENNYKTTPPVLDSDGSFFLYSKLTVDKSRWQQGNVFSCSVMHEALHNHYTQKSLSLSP

B1: R12 (antibody, V domains shown)
VH: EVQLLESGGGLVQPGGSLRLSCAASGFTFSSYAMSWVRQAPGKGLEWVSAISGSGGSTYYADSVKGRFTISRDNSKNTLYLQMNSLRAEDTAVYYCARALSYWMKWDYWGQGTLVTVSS
VL: DIQMTQSPSSLSASVGDRVTITCRASQSISSYLNWYQQKPGKAPKLLIYAASSLQSGVPSRFSGSGSGTDFTLTISSLQPEDFATYYCQQFNGFPLTFGGGTKVEIK
notes: Synthetic library clone; Fab on phage in the phage ELISA
Ratio with respect to Non-Coating [1]: 1.1

B2: R13 (antibody, V domains shown)
VH: QVQLVESGGGLVQPGGSLRLSCAASGFTFSYYDIQWVRQAPGKGLEWVSSISPSGQSTYYRREVKGRFTISRDNSKNTLYLQMNSLRAEDTAVYYCARRTGREYGGGWYFDYWGQGTLVTVSS
VL: DIQMTQSPSSLSASVGDRVTITCRASQSISSYLNWYQQKPGKAPKLLIYAASSLQSGVPSRFSGSGSGTDFTLTISSLQPEDFATYYCQQFSRFPLTFGGGTKVEIK
notes: as for B1
Ratio with respect to Non-Coating [1]: 0.4

B3: R19 (antibody, V domains shown)
VH: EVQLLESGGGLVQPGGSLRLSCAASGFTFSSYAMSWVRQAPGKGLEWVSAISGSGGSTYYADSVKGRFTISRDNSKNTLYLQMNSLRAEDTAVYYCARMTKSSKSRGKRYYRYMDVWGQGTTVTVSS
VL: DIQMTQSPSSLSASVGDRVTITCRASQSISSYLNWYQQKPGKAPKLLIYAASSLQSGVPSRFSGSGSGTDFTLTISSLQPEDFATYYCLQVYSSPLTFGGGTKVEIK
notes: as for B1
Ratio with respect to Non-Coating [1]: 0.9

B4: R11 (antibody, V domains shown)
VH: QVQLLESGGGLVQPGGSLRLSCAASGFTFSSYAMSWVRQAPGKGLEWVSAISGSGGSTYYADSVKGRFTISRDNSKNTLYLQMNSLRAEDTAVYYCARDKWYYYPALDYWGQGTLVTVSS
VL: DIQMTQSPSSLSASVGDRVTITCRASQSISSYLNWYQQKPGKAPKLLIYAASSLQSGVPSRFSGSGSGTDFTLTISSLQPEDFATYYCQQFSRFPLTFGGGTKVEIK
notes: as for B1
Ratio with respect to Non-Coating [1]: 1

B5: R8 (antibody, V domains shown)
VH: QVQLQESGPGLVKPSETLSLTCAVSGYSISSGYYWGWIRQPPGKGLEWIGSIYHSGSTYYNPSLKSRVTISVDTSKNQFSLKLSSVTAADTAVYYCARQHSFTRYYGYYYFDYWGQGTTVTVSS
VL: DIQMTQSPSSLSASVGDRVTITCRASQSISSYLNWYQQKPGKAPKLLIYAASSLQSGVPSRFSGSGSGTDFTLTISSLQPEDFATYYCLQSDSIPLTFGGGTKVEIK
notes: as for B1
Ratio with respect to Non-Coating (CRD1-2 [2]): 0.5 | Ratio with respect to Non-Coating (CRD1 [3]): 0.7

B6: R16 (antibody, V domains shown)
VH: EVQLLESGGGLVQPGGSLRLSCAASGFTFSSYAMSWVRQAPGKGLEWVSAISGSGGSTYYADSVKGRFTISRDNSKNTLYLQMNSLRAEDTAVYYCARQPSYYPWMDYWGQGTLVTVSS
VL: DIQMTQSPSSLSASVGDRVTITCRASQSISSYLNWYQQKPGKAPKLLIYAASSLQSGVPSRFSGSGSGTDFTLTISSLQPEDFATYYCQQFNNYPLTFGGGTKVEIK
notes: as for B1
Ratio with respect to Non-Coating (CRD2-3 [4]): 14.9 | Ratio with respect to Non-Coating [1]: 11.3 | Ratio with respect to Non-Coating (CRD1-2 [2]): 1.6 | Ratio with respect to Non-Coating (CRD1 [3]): 1.7 | Ratio with respect to Non-Coating (CRD2-4 [5]): 12.7 | Ratio with respect to Non-Coating (CRD1-3 [6]): 13.1 | Ratio with respect to Non-Coating (CRD3-4 [7]): 15.4 | ELISA color development level (CRD2-3 [8]): 2.54 | ELISA color development level [9]: 1.93 | ELISA color development level (CRD1-2 [10]): 0.269 | ELISA color development level (CRD1 [11]): 0.286 | ELISA color development level (CRD2-4 [12]): 2.17 | ELISA color development level (CRD1-3 [13]): 2.24 | ELISA color development level (CRD3-4 [14]): 2.63

B7: R15 (antibody, V domains shown)
VH: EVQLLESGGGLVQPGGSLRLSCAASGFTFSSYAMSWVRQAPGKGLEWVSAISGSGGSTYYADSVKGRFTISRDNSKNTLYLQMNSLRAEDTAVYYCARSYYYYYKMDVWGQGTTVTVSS
VL: DIQMTQSPSSLSASVGDRVTITCRASQSISSYLNWYQQKPGKAPKLLIYAASSLQSGVPSRFSGSGSGTDFTLTISSLQPEDFATYYCQQFVRHPPTFGGGTKVEIK
notes: as for B1
Ratio with respect to Non-Coating [1]: 0.6

B8: R14 (antibody, V domains shown)
VH: QVQLLESGGGLVQPGGSLRLSCAASGFTFSSYAMSWVRQAPGKGLEWVSAISGSGGSTYYADSVKGRFTISRDNSKNTLYLQMNSLRAEDTAVYYCARDKWYYYPALDYWGQGTLVTVSS
VL: DIQMTQSPSSLSASVGDRVTITCRASQSISSYLNWYQQKPGKAPKLLIYAASSLQSGVPSRFSGSGSGTDFTLTISSLQPEDFATYYCLQVYRSPLTFGGGTKVEIK
notes: as for B1
Ratio with respect to Non-Coating [1]: 0.9

B9: H237-mIgG1/MRAL-k0 (antibody)
heavy: QVQLQESGPGLVKPSETLSLTCAVSGHSISHDHAWSWVRQPPGEGLEWIGFISYSGITNYNPSLQGRVTISRDNSKNTLYLQMNSLRAEDTAVYYCARSLARTTAMDYWGEGTLVTVSSAKTTPPSVYPLAPGSAAQTNSMVTLGCLVKGYFPEPVTVTWNSGSLSSGVHTFPAVLQSDLYTLSSSVTVPSSTWPSETVTCNVAHPASSTKVDKKIVPRDCGCKPCICTVPEVSSVFIFPPKPKDVLTITLTPKVTCVVVDISKDDPEVQFSWFVDDVEVHTAQTQPREEQFNSTFRSVSELPIMHQDWLNGKEFKCRVNSAAFPAPIEKTISKTKGRPKAPQVYTIPPPKEQMAKDKVSLTCMITDFFPEDITVEWQWNGQPAENYKNTQPIMDTDGSYFVYSKLNVQKSNWEAGNTFTCSVLHEGLHNHHTEKSLSHSPGK
light: not shown
notes: Anti-human IL-6 receptor variable region H237 with mouse IgG1 constant region; copies: 2 + 2
Kd [15]: 282 nM

B10: 1D8VH-MB492/1D8VL-mk0 (antibody, mouse IgG1, kappa, V domains shown)
VH: QVQLKEAGPGLVQPTQTLSLTCTVSGFSLTSDGVHWIRQPPGKGLEWMGIIYYDGGTDYNSAIKSRLSISRDTSKSQVFLKINSLQTDDTAMYYCARIHFDYWGQGVMVTVSS
VL: DIVLTQSPTTIAASPGEKVTITCRASSSVSYMYWYQQKSGASPKLWIYDTSKLASGVPNRFSGSGSGTSYSLAINTMETEDAATYYCQQWSSTPLTFGSGTKLEIKR
specific activity, mouse IFN-γ in the supernatant of spleen cells (ELISA) (mouse CD137 on T cells): ~8 fold
